Non-standard residues stand in square brackets, D forms with d. No end group written: not given here. Cha = N[C@@H](CC1CCCCC1)C(=O)O; 14 = not defined here
Experiments:
[1] = target: HLA-DR1 (DRB1*0101), purified from LG2 cells (human); assay: 125I-peptide inhibition, purified class II
[2] = target: T1, HLA-DRw53 (DRB4*0101), purified from L257.6 transfected fibroblasts (human); assay: 125I-peptide inhibition, purified class II
T1 chain 1: not shown
T1 chain 2: not shown

[3] = target: mouse class II IA^s, purified from LS102.9 cells (mouse); assay: 125I-peptide inhibition, purified class II
[4] = target: T2, HLA-DR7 (DRB1*0701), purified from PITOUT cells (human); assay: 125I-peptide inhibition, purified class II
T2 chain 1: not shown
T2 chain 2: not shown

[5] = target: T3, HLA-DR4w4 (DRB1*0401), purified from PREISS cells (human); assay: 125I-peptide inhibition, purified class II
T3 chain 1: not shown
T3 chain 2: not shown

[6] = target: mouse class II IE^k, purified from CH12 cells (mouse); assay: 125I-peptide inhibition, purified class II
[7] = target: T4, mouse class II IA^k, purified from CH12 cells (mouse), P01910; assay: 125I-peptide inhibition, purified class II
T4 chain 1: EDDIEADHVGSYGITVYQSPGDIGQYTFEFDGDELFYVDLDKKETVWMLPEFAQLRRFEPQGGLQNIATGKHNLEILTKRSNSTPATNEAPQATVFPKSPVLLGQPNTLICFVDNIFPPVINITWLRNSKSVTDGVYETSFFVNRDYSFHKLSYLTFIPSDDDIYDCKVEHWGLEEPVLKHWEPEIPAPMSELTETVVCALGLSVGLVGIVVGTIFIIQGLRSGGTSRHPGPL
T4 chain 2: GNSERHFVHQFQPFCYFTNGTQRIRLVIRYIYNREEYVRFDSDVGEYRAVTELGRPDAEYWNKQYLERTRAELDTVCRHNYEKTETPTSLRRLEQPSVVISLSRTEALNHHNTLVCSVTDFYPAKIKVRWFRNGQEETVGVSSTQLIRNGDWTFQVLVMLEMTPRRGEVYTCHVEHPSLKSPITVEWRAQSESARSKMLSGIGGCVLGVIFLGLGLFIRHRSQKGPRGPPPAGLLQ

[8] = target: T5, HLA-DR3 (DRB1*0301), purified from MAT cells (human); assay: 125I-peptide inhibition, purified class II
T5 chain 1: not shown
T5 chain 2: not shown

[9] = target: T6, HLA-DR7 (DRB1*0701), purified from cell line PITOUT (human); assay: competition vs 125I-peptide, purified class II MHC
T6 chain 1: not shown
T6 chain 2: not shown

[10] = target: T7, HLA-DR4w4 (DRB1*0401), purified from cell line PREISS (human); assay: competition vs 125I-peptide, purified class II MHC
T7 chain 1: not shown
T7 chain 2: not shown

[11] = target: T8, HLA-DR5 (DRB1*11011), purified from cell line SWEIG (human); assay: competition vs 125I-peptide, purified class II MHC
T8 chain 1: not shown
T8 chain 2: not shown

[12] = target: T9, HLA-DR3 (DRB1*0301), purified from cell line MAT (human); assay: competition vs 125I-peptide, purified class II MHC
T9 chain 1: not shown
T9 chain 2: not shown

[13] = target: T10, mouse class II IA^b, purified from DB27.4 cells (mouse), P14434; assay: 125I-peptide inhibition, purified class II
T10 chain 1: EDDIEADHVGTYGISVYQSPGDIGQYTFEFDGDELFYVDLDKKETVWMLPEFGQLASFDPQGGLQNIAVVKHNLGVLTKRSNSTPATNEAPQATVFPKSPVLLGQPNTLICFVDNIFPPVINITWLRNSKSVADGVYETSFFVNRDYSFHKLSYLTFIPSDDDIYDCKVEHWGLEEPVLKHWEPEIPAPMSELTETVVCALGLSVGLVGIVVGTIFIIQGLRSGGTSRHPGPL
T10 chain 2: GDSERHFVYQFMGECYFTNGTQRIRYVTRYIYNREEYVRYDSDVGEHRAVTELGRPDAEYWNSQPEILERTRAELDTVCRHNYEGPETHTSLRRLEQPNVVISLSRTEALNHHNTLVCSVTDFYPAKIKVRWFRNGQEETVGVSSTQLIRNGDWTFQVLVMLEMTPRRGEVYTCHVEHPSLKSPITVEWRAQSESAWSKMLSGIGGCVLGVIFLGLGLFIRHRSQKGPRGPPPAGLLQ

[14] = target: mouse class II IE^d, purified from A20 cells (mouse); assay: 125I-peptide inhibition, purified class II
[15] = target: T11, HLA-DR5 (DRB1*11011), purified from SWEIG cells (human); assay: 125I-peptide inhibition, purified class II
T11 chain 1: not shown
T11 chain 2: not shown

[dA]A[Cha]AAAATLKAA[dA] [760.57] gave an IC50 [1] of 4.5 nM, an IC50 [2] of 3300 nM and an IC50 [3] of 120 nM. For the same binder, the IC50 [4] was 78 nM, the IC50 [5] was 2 nM and the IC50 [6] was 78 nM. It also gave an IC50 [7] of 5260 nM.

B1: 906.50 (peptide)
peptide: [dA]A[Cha]AAAATLKAF[dA]-NH2
modifications: N-terminus assumed
SMILES: CC(C)C[C@H](NC(=O)[C@@H](NC(=O)[C@H](C)NC(=O)[C@H](C)NC(=O)[C@H](C)NC(=O)[C@H](C)NC(=O)[C@H](CC1CCCCC1)NC(=O)[C@H](C)NC(=O)[C@@H](C)N)[C@@H](C)O)C(=O)N[C@@H](CCCCN)C(=O)N[C@@H](C)C(=O)N[C@@H](Cc1ccccc1)C(=O)N[C@H](C)C(N)=O
For B1, the fold increase in reactivity vs 760.57 [8] was 8 fold and the fold increase in reactivity vs 760.57 [2] was 40 fold.

[dA]K[14]VYAWTLKAA[dA]-NH2 (reading uncertain; also: printed as aK(14)VYAWTLKAAa-NH2) [peptide 965.051, aK(14)…a-NH2] showed an IC50 [9] of 833 nM, an IC50 [10] of 0.3 nM and an IC50 [11] of 5.7 nM.

B2: 906.04 (peptide)
peptide: [dA]V[Cha]AAAATLKAA[dA]-NH2
modifications: N-terminus assumed
SMILES: CC(C)C[C@H](NC(=O)[C@@H](NC(=O)[C@H](C)NC(=O)[C@H](C)NC(=O)[C@H](C)NC(=O)[C@H](C)NC(=O)[C@H](CC1CCCCC1)NC(=O)[C@@H](NC(=O)[C@@H](C)N)C(C)C)[C@@H](C)O)C(=O)N[C@@H](CCCCN)C(=O)N[C@@H](C)C(=O)N[C@@H](C)C(=O)N[C@H](C)C(N)=O
In the case of B2, the fold increase in reactivity vs 760.57 [8] is reported as 3 fold and the fold increase in reactivity vs 760.57 [2] is reported as 30 to 100 fold.

Work on [dA]K[14]VWANTLKAA[dA]-NH2 (reading uncertain; also: printed as aK(14)VWANTLKAAa-NH2) [peptide 965.031, aK(14)…a-NH2] yielded an IC50 [10] of 2.1 nM and an IC50 [11] of 8.3 nM.

[dA]K[14]VKAWTLKAA[dA]-NH2 (reading uncertain; also: printed as aK(14)VKAWTLKAAa-NH2) [peptide 965.022, aK(14)…a-NH2] was tested, and the IC50 [10] was 0.8 nM and the IC50 [11] was 1.1 nM.

[dA]K[14]VYAWTLKAA[dA]-NH2 (reading uncertain; also: printed as aK(14)VYAWTLKAAa-NH2) [peptide 965.052, aK(14)…a-NH2] was tested, and the IC50 [9] was 25.5 nM, the IC50 [10] was 0.8 nM and the IC50 [11] was 6.9 nM.

B3: 906.17 (peptide)
peptide: [dA]A[Cha]AFAATLKAA[dA]-NH2
modifications: N-terminus assumed
SMILES: CC(C)C[C@H](NC(=O)[C@@H](NC(=O)[C@H](C)NC(=O)[C@H](C)NC(=O)[C@H](Cc1ccccc1)NC(=O)[C@H](C)NC(=O)[C@H](CC1CCCCC1)NC(=O)[C@H](C)NC(=O)[C@@H](C)N)[C@@H](C)O)C(=O)N[C@@H](CCCCN)C(=O)N[C@@H](C)C(=O)N[C@@H](C)C(=O)N[C@H](C)C(N)=O
In the case of B3, the fold increase in binding vs 760.57 [8] is reported as 2 to 4 fold and the fold increase in reactivity vs 760.57 [2] is reported as 100 fold.

B4: 906.20 (peptide)
peptide: [dA]A[Cha]AAQATLKAA[dA]-NH2
modifications: N-terminus assumed
SMILES: CC(C)C[C@H](NC(=O)[C@@H](NC(=O)[C@H](C)NC(=O)[C@H](CCC(N)=O)NC(=O)[C@H](C)NC(=O)[C@H](C)NC(=O)[C@H](CC1CCCCC1)NC(=O)[C@H](C)NC(=O)[C@@H](C)N)[C@@H](C)O)C(=O)N[C@@H](CCCCN)C(=O)N[C@@H](C)C(=O)N[C@@H](C)C(=O)N[C@H](C)C(N)=O
B4 was tested, and the fold reduction of binding vs 760.57 [4] was 30 fold.

Binder HSLGKWLGHPDKF (modifications not checked) [PLP 139-151] has an IC50 [3] of 86 nM.

B5: 906.16 (peptide)
peptide: [dA]A[Cha]AVAATLKAA[dA]-NH2
modifications: N-terminus assumed
SMILES: CC(C)C[C@H](NC(=O)[C@@H](NC(=O)[C@H](C)NC(=O)[C@H](C)NC(=O)[C@@H](NC(=O)[C@H](C)NC(=O)[C@H](CC1CCCCC1)NC(=O)[C@H](C)NC(=O)[C@@H](C)N)C(C)C)[C@@H](C)O)C(=O)N[C@@H](CCCCN)C(=O)N[C@@H](C)C(=O)N[C@@H](C)C(=O)N[C@H](C)C(N)=O
B5 gave a fold increase in binding vs 760.57 [8] of 2 to 4 fold and a fold increase in reactivity vs 760.57 [2] of 100 fold.

For [dA]K[14]VKANTLKAA[dA]-NH2 (reading uncertain; also: printed as aK(14)VKANTLKAAa-NH2) [peptide 965.011, aK(14)…a-NH2], the IC50 [11] was 11.8 nM and the IC50 [12] was 592 nM.

Work on [dA]K[14]VKANTLKAA[dA]-NH2 (reading uncertain; also: printed as aK(14)VKANTLKAAa-NH2) [peptide 965.012, aK(14)…a-NH2] yielded an IC50 [10] of 2.1 nM, an IC50 [11] of 2.2 nM and an IC50 [12] of 4590 nM.

Work on [dA]A[Cha]AAEATLKAA[dA]-NH2 [906.19] yielded an IC50 [8] of 1500 nM.

B6: 906.18 (peptide)
peptide: [dA]A[Cha]AAKATLKAA[dA]-NH2
modifications: N-terminus assumed
SMILES: CC(C)C[C@H](NC(=O)[C@@H](NC(=O)[C@H](C)NC(=O)[C@H](CCCCN)NC(=O)[C@H](C)NC(=O)[C@H](C)NC(=O)[C@H](CC1CCCCC1)NC(=O)[C@H](C)NC(=O)[C@@H](C)N)[C@@H](C)O)C(=O)N[C@@H](CCCCN)C(=O)N[C@@H](C)C(=O)N[C@@H](C)C(=O)N[C@H](C)C(N)=O
B6 showed a fold decrease of binding activity vs 760.57 [1] of 8 fold.

Work on [dA]K[14]VWANTLKAA[dA]-NH2 (reading uncertain; also: printed as aK(14)VWANTLKAAa-NH2) [peptide 965.032, aK(14)…a-NH2] yielded an IC50 [10] of 0.7 nM, an IC50 [11] of 2.9 nM and an IC50 [12] of 849 nM.

With NTDGSTDYGILQINSR (modifications not checked) [HEL46-61] the IC50 [13] was 7000 nM, the IC50 [14] was 8500 nM and the IC50 [7] was 20 nM.

B7: 906.30 (peptide)
peptide: [dA]A[Cha]AAAATEKAA[dA]-NH2
modifications: N-terminus assumed
SMILES: C[C@H](NC(=O)[C@H](C)NC(=O)[C@H](C)NC(=O)[C@H](CC1CCCCC1)NC(=O)[C@H](C)NC(=O)[C@@H](C)N)C(=O)N[C@@H](C)C(=O)N[C@H](C(=O)N[C@@H](CCC(=O)O)C(=O)N[C@@H](CCCCN)C(=O)N[C@@H](C)C(=O)N[C@@H](C)C(=O)N[C@H](C)C(N)=O)[C@@H](C)O
B7 gave a fold loss of binding reactivity vs 760.57 [1] of 8 fold, a fold loss of binding reactivity vs 760.57 [15] of 10 fold and a fold loss of binding reactivity vs 760.57 [4] of 10 fold. For the same binder, the fold loss of binding reactivity vs 760.57 [5] was 7 fold.

AKFVAAWTLKAAA (modifications not checked) [1024.03] was tested, and the IC50 [15] was 18 nM, the IC50 [5] was 2 nM and the IC50 [6] was 3500 nM.

Binder [dA]A[Cha]AAAKTAAAA[dA] [760.50] has an IC50 [13] of 200 nM and an IC50 [15] of 6.1 nM.
